# Measurements: patent publication US20240287161A1 (NATIONAL UNIVERSITY CORPORATION TOTTORI UNIVERSITY, published 2024)
# T1: HCoV-NL63 trimeric S protein (amino acids 22-1293) with T4 foldon, histidine tag and strep-tag (HCoV-NL63, UniProt Q6Q1S2 23-1293)
# T1 sequence: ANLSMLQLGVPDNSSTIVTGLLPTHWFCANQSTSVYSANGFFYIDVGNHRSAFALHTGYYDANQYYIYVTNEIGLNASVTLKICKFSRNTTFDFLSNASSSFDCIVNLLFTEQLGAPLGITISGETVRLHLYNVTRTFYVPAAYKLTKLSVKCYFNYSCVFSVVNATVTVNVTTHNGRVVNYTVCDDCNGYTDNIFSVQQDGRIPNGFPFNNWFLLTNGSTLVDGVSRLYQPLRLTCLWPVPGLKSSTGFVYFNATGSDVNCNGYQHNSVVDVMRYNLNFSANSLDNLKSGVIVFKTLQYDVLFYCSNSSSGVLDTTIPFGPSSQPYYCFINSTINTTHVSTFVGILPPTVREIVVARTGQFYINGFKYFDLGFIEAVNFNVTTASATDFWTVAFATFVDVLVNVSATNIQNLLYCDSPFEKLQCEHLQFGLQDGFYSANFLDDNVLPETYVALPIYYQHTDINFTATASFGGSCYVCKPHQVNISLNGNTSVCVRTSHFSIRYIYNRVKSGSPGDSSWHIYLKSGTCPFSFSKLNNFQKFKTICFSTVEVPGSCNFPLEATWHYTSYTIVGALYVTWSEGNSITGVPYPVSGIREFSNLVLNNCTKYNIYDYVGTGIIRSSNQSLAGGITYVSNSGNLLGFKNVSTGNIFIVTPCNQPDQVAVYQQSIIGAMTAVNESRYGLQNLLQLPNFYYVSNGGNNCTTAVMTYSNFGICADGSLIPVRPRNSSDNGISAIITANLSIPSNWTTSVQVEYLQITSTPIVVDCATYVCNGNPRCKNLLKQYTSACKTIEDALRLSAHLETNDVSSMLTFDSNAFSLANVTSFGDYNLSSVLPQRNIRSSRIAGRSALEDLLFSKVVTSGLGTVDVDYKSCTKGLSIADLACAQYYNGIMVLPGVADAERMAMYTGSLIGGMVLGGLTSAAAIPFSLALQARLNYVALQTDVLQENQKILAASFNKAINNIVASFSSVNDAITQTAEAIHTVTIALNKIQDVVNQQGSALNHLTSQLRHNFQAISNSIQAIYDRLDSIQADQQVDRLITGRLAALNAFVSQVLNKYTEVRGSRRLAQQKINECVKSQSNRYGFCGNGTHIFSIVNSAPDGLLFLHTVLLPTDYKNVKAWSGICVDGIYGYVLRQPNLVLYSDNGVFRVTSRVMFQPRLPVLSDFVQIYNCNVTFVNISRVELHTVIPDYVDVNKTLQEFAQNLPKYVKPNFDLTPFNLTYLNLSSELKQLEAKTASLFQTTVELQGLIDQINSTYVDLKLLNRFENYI
# T2: HCoV-OC43 trimeric S protein (amino acids 12-1299) with T4 foldon, histidine tag and strep-tag (HCoV-OC43, UniProt P36334 12-1291)
# T2 chain: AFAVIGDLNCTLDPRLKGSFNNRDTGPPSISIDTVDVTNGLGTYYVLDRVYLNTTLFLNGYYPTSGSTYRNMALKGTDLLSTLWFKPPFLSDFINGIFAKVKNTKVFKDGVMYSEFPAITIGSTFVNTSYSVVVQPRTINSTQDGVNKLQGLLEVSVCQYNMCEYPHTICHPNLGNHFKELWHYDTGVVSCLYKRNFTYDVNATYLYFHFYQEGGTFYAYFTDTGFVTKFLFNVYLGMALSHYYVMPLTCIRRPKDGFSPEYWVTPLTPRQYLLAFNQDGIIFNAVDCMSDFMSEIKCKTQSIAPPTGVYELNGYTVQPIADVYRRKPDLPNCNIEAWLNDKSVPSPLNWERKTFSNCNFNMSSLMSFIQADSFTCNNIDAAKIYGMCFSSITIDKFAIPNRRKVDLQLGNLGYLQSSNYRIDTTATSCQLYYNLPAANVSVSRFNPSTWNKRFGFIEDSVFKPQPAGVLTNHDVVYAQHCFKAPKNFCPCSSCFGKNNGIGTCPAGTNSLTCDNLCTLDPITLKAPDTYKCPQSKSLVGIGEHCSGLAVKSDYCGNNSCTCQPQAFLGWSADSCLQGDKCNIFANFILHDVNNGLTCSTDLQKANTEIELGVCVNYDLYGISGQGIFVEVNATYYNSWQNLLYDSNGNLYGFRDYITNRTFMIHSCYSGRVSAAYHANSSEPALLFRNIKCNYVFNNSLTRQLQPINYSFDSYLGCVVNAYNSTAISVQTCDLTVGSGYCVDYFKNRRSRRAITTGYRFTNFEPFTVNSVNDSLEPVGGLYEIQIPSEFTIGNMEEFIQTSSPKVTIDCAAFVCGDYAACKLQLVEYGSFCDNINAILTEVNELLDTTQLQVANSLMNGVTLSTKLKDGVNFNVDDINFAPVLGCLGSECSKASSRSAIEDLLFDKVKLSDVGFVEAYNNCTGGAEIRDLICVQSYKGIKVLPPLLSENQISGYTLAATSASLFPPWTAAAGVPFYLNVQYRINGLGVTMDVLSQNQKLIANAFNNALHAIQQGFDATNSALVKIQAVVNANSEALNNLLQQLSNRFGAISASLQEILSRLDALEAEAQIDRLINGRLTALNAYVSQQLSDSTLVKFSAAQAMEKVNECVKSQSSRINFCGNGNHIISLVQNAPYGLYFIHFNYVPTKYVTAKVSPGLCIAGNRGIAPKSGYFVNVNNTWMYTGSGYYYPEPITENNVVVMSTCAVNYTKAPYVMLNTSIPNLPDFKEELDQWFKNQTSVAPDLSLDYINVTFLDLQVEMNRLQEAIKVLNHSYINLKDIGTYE
# B1: NT-193 (recombinant human IgG1/kappa antibody) (antibody, V domains shown)
# VH: EVQLQQWGAGLLKPSETLSLTCAVYGGSFSGYYWSWIRQPPGKGLEWIGEINHSGSTNYNPSLKSRVTISVDTSKNQFSLKLSSVTAADTAVYYCARGWDLDYYYGMDVWGQGTTVTVSS
# VL: DIRMTQSPSAMSASVGDRVTVTCRASQGIGNYLAWFQLKPGKVPKRLIYAASSLQSGVPARFSGGGSGTEFTLTISSLQPEDFATYYCLQHGFLPWTFGQGTKLEIK
# Legend:
# [1] = biological target: T1, HCoV-NL63 trimeric S protein (amino …); assay: ELISA on coated S-trimeric antigen, anti-human IgG-HRP [Human IgG1, NT-193]
# [2] = biological target: T2, HCoV-OC43 trimeric S protein (amino …); assay: as above
binder,measurement,setting,value
B1,binding result,[1],no binding (tested: 1000 ng/ml)
same,binding result,[2],no binding (tested: 1000 ng/ml)
